Patent publication US20220089705A1 (Harvard, published 2022)
Values belong to the binder of their own block, whether it stands above or below them.

What was measured:
[1] = biological target: T1, human aP2 (fatty acid-binding protein, adipocyte, FABP4/aP2) (human, UniProt P15090 1-132, Biotinylated with Sulfo-NHS-LC-Biotin in the Octet assay. Refolded with palmitic acid after delipidation. The letters carry neither.); assay: method not stated in the sentence (FIG. 31); average binding affinity; PB1172, human aP2
T1 construct: also called haP2; human FABP4

[2] = biological target: T1, human aP2 (fatty acid-binding protein, …); assay: assay not given; KD (M) column under 'Human', second of two rows (also printed as 6.44 under KD (µM))
[3] = biological target: T1, human aP2 (fatty acid-binding protein, …); assay: assay not given; KD (M) column under 'Human', first of two rows (also printed as 5.62 under KD (µM))
[4] = biological target: T2, mouse aP2 (fatty acid-binding protein, adipocyte, FABP4/aP2) (mouse, UniProt P04117 1-132); assay: method not stated in the sentence (FIG. 31); average binding affinity; PB1172, mouse aP2
T2 construct: Lipid-loaded and de-lipidated preparations are the same polypeptide and are told apart under assay; also called mouse FABP4; murine aP2
T2 sequence: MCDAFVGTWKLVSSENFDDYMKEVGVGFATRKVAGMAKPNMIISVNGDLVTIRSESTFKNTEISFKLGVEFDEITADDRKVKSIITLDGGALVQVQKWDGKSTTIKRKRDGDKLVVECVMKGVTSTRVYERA

[5] = biological target: T2, mouse aP2 (fatty acid-binding protein, …); assay: assay not given; KD (M) column under 'Mouse', second of two rows (also printed as 4.99 under KD (µM))
[6] = biological target: T2, mouse aP2 (fatty acid-binding protein, …); assay: assay not given; KD (M) column under 'Mouse', first of two rows (also printed as 4.14 under KD (µM))
[7] = biological target: T3, recombinant human FABP5/Mal1 (human, UniProt Q01469 1-135); assay: Octet RED384: biotinylated human FABP5/Mal1 on streptavidin biosensors, maximal association signal minus background
T3 construct: Bought; Biotinylated and loaded on streptavidin biosensors; also called hFABP5/hMal1; Mal1/FABP5
T3 sequence (Q01469 whole entry): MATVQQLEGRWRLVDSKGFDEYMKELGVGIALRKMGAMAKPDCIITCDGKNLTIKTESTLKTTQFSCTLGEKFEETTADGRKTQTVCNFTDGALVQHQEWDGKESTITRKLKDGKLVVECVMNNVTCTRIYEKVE
Description: The recombinant human proteins aP2 (generated at UCB in E. coli (see method below)), hFABP3 (Sino Biological Inc.) and hFABP5/hMal1 (Sino Biological Inc.) were biotinylated in a 5-fold molar excess of EZ-Link® Sulfo-NHS-LC-Biotin (Thermo Fisher Scientific) and purified from unbound biotin using a Zeba desalting column (Thermo Fisher Scientific). All binding studies were performed at 25° C. using a ForteBio Octet RED384 system (Pall ForteBio Corp.). After a 120 s baseline step in PBS containing 0.05% Tween 20, pH7.4 (PBS-T), Dip and Read™ streptavidin (SA) biosensors (Pall ForteBio Corp.) were loaded with biotinylated recombinant haP2, hFABP3 or hFABP5/hMal1 at 60 nM for 90 s. After a 60 s stabilisation step in PBS-T, each FABP-loaded biosensor was transferred to a sample of monoclonal antibody at 800 nM and association was measured for 5 min. Biosensors were then transferred back to PBS-T for 5 min to measure dissociation. Non-specific binding of antibodies was monitored using unloaded biosensor tips. Maximal association binding i.e., once signal had plateaued, minus background binding, was plotted for each antibody/FABP combination.

[8] = biological target: T1, human aP2 (fatty acid-binding protein, …); assay: SPR, Biacore T200: antibody captured on immobilized anti-mouse IgG Fc, aP2 titrated 25 to 3.13 nM, 1:1 binding model
Description: (§1) The affinity of anti-aP2 binding to aP2 (recombinantly generated in E. coli as described below) was determined by biomolecular interaction analysis, using a Biacore T200 system (GE Healthcare). Affinipure F(ab′)2 fragment goat anti-mouse IgG, Fc fragment specific (Jackson ImmunoResearch Lab, Inc.) in 10 mM NaAc, pH 5 buffer was immobilized on a CMS Sensor Chip via amine coupling chemistry to a capture level between 4500-6000 response units (RU) using HBS-EP+(GE Healthcare) as the running buffer. Anti-aP2 IgG was diluted to between 1-10 μg/ml in running buffer. A 60 s injection of anti-aP2 IgG at 10 μl/min was used for capture by the immobilized anti-mouse IgG, Fc then aP2 was titrated from 25 nM to 3.13 nM over the captured anti-aP2 for 180 s at 30 μl/min followed by 300 s dissociation. The surface was regenerated by 2×60 s 40 mM HCl and 1×30 s 5 mM NaOH at 10 μl/min. The data were analyzed using Biacore T200 evaluation software (version 1.0) using the 1:1 binding model with local Rmax. […] The surface was regenerated by 1×60 s 40 mM HCl, 1×30 s 5 mM NaOH and 1×60 s 40 mM HCl at 10 μl/min. Steady state fitting was used to determine affinity values.

[9] = biological target: T2, mouse aP2 (fatty acid-binding protein, …); assay: assay not given; KD (M) column under 'Mouse', first of two rows (also printed as 5.53 under KD (µM))
[10] = biological target: T2, mouse aP2 (fatty acid-binding protein, …); assay: assay not given; KD (M) column under 'Mouse', second of two rows (also printed as 4.71 under KD (µM))
[11] = biological target: T2, mouse aP2 (fatty acid-binding protein, …); assay: method not stated in the sentence (FIG. 31); average binding affinity; PB1171, mouse aP2
[12] = biological target: T1, human aP2 (fatty acid-binding protein, …); assay: SPR, Biacore T200: antibody captured on immobilized anti-mouse IgG Fc, aP2 titrated 40 to 0.625 µM, steady state fit
Description: as §1

- Kd [1]: 6.03 µM
- Kd [2]: 6.44 µM
- Kd [3]: 5.62 µM
- Kd [4]: 4.57 µM
- Kd [5]: 4.99 µM
- Kd [6]: 4.14 µM
B1: PB1172 (H3 gL11/gH19), reduced-affinity variant of H3 (antibody, mouse IgG1, V domains shown)
VH: QVQLQQPGAELVKPGASVKLSCKASGYTFTSNAITWVKQRPGQGLEWIGDISPGSGSTTNNEKFKSKATLTVDTSSSTAYMQLSSLTSEDSAVYYCARLRGYYDYFDFWGQGTTLTVSS
VL: EVVLTQSPALMAASPGEKVTITCSVSSSISSSNLHWYQQKSETSPKPWIYGTSNLASGVPVRFSGSGSGTSYSLTISSMEAEDAATYYCQQASHYPLTFGAGTKLELK
notes: Heavy chain W33A, Y52S; light chain W91A, relative to H3; also called 5251.mIgG1168; APP5168/PB1172

- binding result [7]: no binding
- Kd [8]: 0.0011 µM
B2: H3, mouse anti-aP2 monoclonal antibody (H3 gL1/gH1) (antibody, V domains shown)
VH: QVQLQQPGAELVKPGASVKLSCKASGYTFTSNWITWVKQRPGQGLEWIGDIYPGSGSTTNNEKFKSKATLTVDTSSSTAYMQLSSLTSEDSAVYYCARLRGYYDYFDFWGQGTTLTVSS
VL: EVVLTQSPALMAASPGEKVTITCSVSSSISSSNLHWYQQKSETSPKPWIYGTSNLASGVPVRFSGSGSGTSYSLTISSMEAEDAATYYCQQWSHYPLTFGAGTKLELK
notes: Mouse IgG; also called wild-type parent H3

- Kd [9]: 5.53 µM
- Kd [10]: 4.71 µM
- Kd [11]: 5.12 µM
B3: PB1171 (H3 gL1/gH20), reduced-affinity variant of H3 (antibody, mouse IgG1, V domains shown)
VH: QVQLQQPGAELVKPGASVKLSCKASGYTFTSNAITWVKQRPGQGLEWIGDISPGSGSTTNNEKFKSKATLTVDTSSSTAYMQLSSLTSEDSAVYYCARLRGFYDYFDFWGQGTTLTVSS
VL: EVVLTQSPALMAASPGEKVTITCSVSSSISSSNLHWYQQKSETSPKPWIYGTSNLASGVPVRFSGSGSGTSYSLTISSMEAEDAATYYCQQWSHYPLTFGAGTKLELK
notes: Heavy chain W33A, Y52S, Y98F relative to H3; also called 5252.mIgG1.169; APP5169/PB1171

- Kd [12]: 2.83 µM
- binding result [7]: no binding
B4: CA33, rabbit-mouse hybrid anti-aP2 monoclonal antibody (Rabbit Ab 909) (antibody, V domains shown)
VH: QSVEESGGRLVTPGTPLTLTCTVSGFSLSTYYMSWVRQAPGKGLEWIGIIYPSGSTYCASWAKGRFTISKASTTVDLKITSPTTEDTATYFCARPDNDGTSGYLSGFGLWGQGTLVTVSS
VL: DVVMTQTPASVSEPVGGTVTIKCQASEDISRYLVWYQQKPGQPPKRLIYKASTLASGVPSRFKGSGSGTDFTLTISDLECDDAATYYCQCTYGTYAGSFFYSFGGGTEVVVE
notes: also called Rabbit Antibody 909
